Test results from EP4796562A1 (Shanghai Simnova Biotechnology Co., Ltd., dated 2026).

T1: DLL3 endogenously expressed on SHP77 cells (human, UniProt Q9NYJ7 27-618)
T1 construct: whole, on cells; also called human DLL3 on SHP-77
T1 sequence (looked up): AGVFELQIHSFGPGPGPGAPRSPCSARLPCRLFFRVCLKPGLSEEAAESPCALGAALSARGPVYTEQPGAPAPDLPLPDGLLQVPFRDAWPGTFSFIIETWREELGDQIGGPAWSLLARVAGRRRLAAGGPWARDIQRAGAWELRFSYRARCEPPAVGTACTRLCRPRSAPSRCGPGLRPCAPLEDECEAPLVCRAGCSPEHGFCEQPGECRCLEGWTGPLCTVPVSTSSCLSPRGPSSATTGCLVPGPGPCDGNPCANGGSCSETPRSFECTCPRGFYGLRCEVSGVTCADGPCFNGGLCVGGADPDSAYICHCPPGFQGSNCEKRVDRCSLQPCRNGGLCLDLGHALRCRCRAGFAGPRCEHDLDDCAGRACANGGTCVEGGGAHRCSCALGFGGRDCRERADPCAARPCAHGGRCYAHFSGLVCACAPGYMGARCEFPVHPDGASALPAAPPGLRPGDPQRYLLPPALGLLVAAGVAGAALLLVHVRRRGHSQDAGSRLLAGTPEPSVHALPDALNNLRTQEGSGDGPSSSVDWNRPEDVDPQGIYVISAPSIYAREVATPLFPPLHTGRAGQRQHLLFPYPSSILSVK


target: T1, DLL3 endogenously expressed on SHP77 …; experiment: flow cytometry (FACS) on SHP77 cells

binding result	Binder
binds	DLL3-scFv-1 (scFv, Murine anti-DLL3 clone; also called DLL3 chimeric antibody DLL3-scFv-1) scFv: DIVMTQSQKFMSTSVGDRVSITCKASQNVGTAVAWYQQKPGQSPKLLIFSASIRYTGVPDRFTGSGSGTDFTLTISNMQSEDLADYFCQQYSSSPYTFGGGTKLEIKGGGGSGGGGSGGGGSEVQLQQSGPVLVKPGASVKMSCKASGYTFTDYYMNWVKRSHGKSLEWIGIINPYNGGTSYNQKFRGKATLTVDKSSNTAYMELNSLTSEDSAVYYCSRYDYDYDVEGAMDYWGQGTSVTVSS
binds	DLL3-scFv-3 (scFv, Murine anti-DLL3 clone; also called DLL3 chimeric antibody DLL3-scFv-3) scFv: DIVLTQSPASLAVSLGQRATISCRASKSVSTSGFSYMHWYQQKPGQPPKLLIYLASNLESGVPARFSGSGSGTDFTLNIHPVEEEDAATYYCQHSRELPFTFGSGTKLEIKGGGGSGGGGSGGGGSQVQLQQSGAELVKPGASVRISCKASGYAFSNYWINWVKQRPGKGLEWIGQINPGDGDTIYNGKFKGKATLTADKSSSTAYMQLSSLTSEDSAVYFCEREGRNYGDFAYWGQGTTLTVSS
binds	DLL3-scFv-2 (scFv, Murine anti-DLL3 clone; also called DLL3 chimeric antibody DLL3-scFv-2) scFv: DIVMTQSPATLSVTPGDRVSLSCRASQTISDYLHWYQQRSHESPRLLIKYASQSISGIPSRFSGSGSGSDFTLSINSVEPEDVGVYYCQNGHSFPLTFGAGTKLELKGGGGSGGGGSGGGGSEVQLQQSGTVLARPGASVKMSCKTSGYTFTSYWMHWVKQSPGQGLEWIGTIYPGNSDTRYNQKFKDKAYVTAVTSASTAYMELSSLTNEESAVYYCTRSYDYGDLDYWGQGTTLTVSS
